How the values were obtained:
[1] = target: FimC-FimH (Escherichia coli) (UniProt P31697); assay: SPR; conditions: cited from earlier work
[2] = target: FimCFimH, where FimC was labeled with the thiol-reactive probe coumarin maleimide (CPM) at Q19C, T51; assay: other fluorescence titration
[3] = target: FimC_(Q19C)-FimH chaperone-adhesin complex, FimC labeled with coumarin maleimide (CPM) (Escherichia coli) (UniProt P31697); assay: other fluorescence titration

| Substance | Kd [3] | also measured |
| --- | --- | --- |
| FimD (from UniProt P30130) | – | Kd [1]: 9.1 nM |
| WT FimD usher (purified, His-tag removed) (from UniProt P30130 46-878) (natural protein) | – | Kd [2]: 9.5 nM |
| FimDΔC2 (purified, His-tag removed) (from UniProt P30130 46-878) (domain or fragment) | 213 nM | – |
| FimD_(ΔC1ΔC2) (purified, His-tag removed) (from UniProt P30130 46-878) (domain or fragment) | 389 nM | – |
| FimD_(ΔNΔplug) (purified, His-tag removed) (from UniProt P30130 46-878) (domain or fragment) | 40.8 nM | – |
| FimDΔN (purified, His-tag removed) (from UniProt P30130 46-878) (domain or fragment) | > 1200 nM | – |
